Measured values reported in article PMC4497409, “Structure and functional properties of Norrin mimic Wnt for signalling with Frizzled4, Lrp5/6, and proteoglycan” (eLife, 2015).
Several values for one entry are separate records, joined by “and”; a condition that tells them apart may be missing. Equal entries are not always repeated.

T1: Frizzled5 cysteine-rich domain, mouse (mouse, UniProt Q9EQD0 31-176)
T1 sequence (looked up): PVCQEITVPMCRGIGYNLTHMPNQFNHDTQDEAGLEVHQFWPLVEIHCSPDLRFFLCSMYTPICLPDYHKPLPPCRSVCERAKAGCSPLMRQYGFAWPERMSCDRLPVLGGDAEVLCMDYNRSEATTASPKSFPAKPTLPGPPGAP

T2: Frizzled8 cysteine-rich domain, mouse (mouse, UniProt Q61091 30-170)
T2 sequence (looked up): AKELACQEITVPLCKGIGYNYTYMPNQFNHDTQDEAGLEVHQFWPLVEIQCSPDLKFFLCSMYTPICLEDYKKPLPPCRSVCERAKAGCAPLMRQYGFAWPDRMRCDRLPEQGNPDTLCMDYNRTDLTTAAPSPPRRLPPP

T3: Lrp6 ectodomain fragment comprising the first two tandem beta-propeller-epidermal growth factor-like domain … (human, UniProt O75581 20-631)
T3 construct: signal peptide in the construct; low-density lipoprotein receptor related protein 6, human, residues 1-631 (P1E1P2E2)
T3 sequence (looked up): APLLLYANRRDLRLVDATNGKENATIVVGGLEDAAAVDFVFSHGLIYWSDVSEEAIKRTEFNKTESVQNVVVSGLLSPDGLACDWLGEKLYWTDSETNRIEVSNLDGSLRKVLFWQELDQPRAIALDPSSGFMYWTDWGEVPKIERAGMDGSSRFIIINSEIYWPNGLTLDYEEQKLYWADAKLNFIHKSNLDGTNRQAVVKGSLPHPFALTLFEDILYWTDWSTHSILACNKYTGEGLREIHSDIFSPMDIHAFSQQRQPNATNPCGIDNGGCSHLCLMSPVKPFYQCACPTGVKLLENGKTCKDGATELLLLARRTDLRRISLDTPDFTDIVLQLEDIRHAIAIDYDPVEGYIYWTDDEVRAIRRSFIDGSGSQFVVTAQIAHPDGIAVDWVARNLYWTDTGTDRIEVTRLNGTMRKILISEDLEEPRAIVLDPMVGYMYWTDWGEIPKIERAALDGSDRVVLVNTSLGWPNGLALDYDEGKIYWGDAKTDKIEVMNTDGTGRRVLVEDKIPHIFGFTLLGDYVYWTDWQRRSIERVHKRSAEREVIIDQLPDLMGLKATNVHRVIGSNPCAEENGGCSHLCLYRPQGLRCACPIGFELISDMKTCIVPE

B1: Frizzled4 cysteine-rich domain (Fz4CRD), human (domain or fragment, UniProt Q9ULV1 42-179, looked up)
chain: ERRCDPIRISMCQNLGYNVTKMPNLVGHELQTDAELQLTTFTPLIQYGCSSQLQFFLCSVYVPMCTEKINIPIGPCGGMCLSVKRRCEPVLKEFGFAWPESLNCSKFPPQNDHNHMCMEGPGDEEVPLPHKTPIQPGE
modifications: N-linked glycans at Asn59 and Asn144 (full, or cut to N-acetylglucosamine by Endo-F1)
notes: Frizzled4 cysteine-rich domain, human, residues 42-179; Glycosylated and deglycosylated samples of the same construct are kept as one molecule; the assay's format tells which was used; also called human Fz4CRD; source: HEK293T, secreted, purified (IMAC, HRV-3C cleavage, IMAC, SEC); with kifunensine and Endo-F1 treatment for crystallisation and the deglycosylated samples; fully glycosylated for …

What was measured:
[1] = biological target: B1; test: SPR; Biacore T200, 25 C, 10 mM HEPES, pH 7.5, 0.15 M NaCl, 0.005% Tween20; biotinylated Norrin variants captured on streptavidin coupled to a CM5 chip; glycosylated FzCRD proteins or Lrp6 P1E1P2E2 as analytes; equilibrium binding, 1:1 Langmuir model; whether the biotinylated Norrin was purified before capture is not told
[2] = biological target: T1, Frizzled5 cysteine-rich domain, mouse; test: as above
[3] = biological target: T2, Frizzled8 cysteine-rich domain, mouse; test: as above
[4] = biological target: T3, Lrp6 ectodomain fragment comprising the …; test: as above
[5] = biological target: T4, Norrin (Norrie Disease Protein), recombinant wild-type after removal of the SUMO fusion tag (human, UniProt Q00604 25-133); test: SAXS; deglycosylated Norrin-Fz4CRD complex at 1.02 and 2.14 mg/ml in 10 mM HEPES, 0.5 M NaCl, without SOS; 293 K; conditions: both partners purified
T4 construct: Norrin (Norrie Disease Protein), human, UniProtKB/Swiss-Prot Q00604, residues 25-133; Disulphide-linked homodimer (Cys93-Cys95, Cys95-Cys93, Cys131-Cys131); also called untagged Norrin; Norrin wild-type; source: for the complex co-expressed with Fz4CRD in HEK293T with kifunensine and valproic acid, purified (IMAC, SEC); not shown: Strep-II, N-terminal, cleaved; His8, N-terminal, cleaved; SUMO (S. …)

[6] = biological target: T5, Norrin R107E/R109E/R115L (in the Norrin R107E/R109E/R115L-Fz4CRD complex) (human, UniProt Q00604 25-133, R107E | R109E | R115L); test: SEC-MALS; Norrin-Fz4CRD complex at 25 uM (glycosylated and deglycosylated), without SOS, on Superdex S200 10/300 GL in 10 mM HEPES, pH 7.5, 0.15 mM NaCl (so in the source); conditions: both partners purified
T5 construct: Norrin, human, UniProtKB/Swiss-Prot Q00604, residues 25-133; source: HEK293T, complex with Fz4CRD, purified (SEC)

Row | Kd [1] | Kd [2] [nM] | Kd [3] [nM] | Kd [4] [nM] | stoichiometry N [5] | stoichiometry N [6] | Binder
1 | 1100 nM and 1000 nM | 42000 | 64000 | 2870 |  |  | Biotinylated human Norrin wild-type (pHL-Avitag3 construct) (ligand, UniProt Q00604 25-133, looked up, biotin on the C-terminal BirA recognition sequence (in vivo biotinylation), Norrin (Norrie Disease Protein), human, UniProtKB/Swiss-Prot Q00604; The same plasmids were used in the luciferase reporter assays; also called Norrin WT; source: HEK293T, co-transfected with BirA-ER for in vivo biotinylation, secreted) KTDSSFIMDSDPRRCMRHHYVDSISHPLYKCSSKMVLLARCEGHCSQASRSEPLVSFSTVLKQPFRSSCHCCRPQTSKLKALRLRCSGGMRLTATYRYILSCHCEECNS
2 |  |  |  |  | 2 Fz4CRD per Norrin dimer (printed 2:2) | 2 Fz4CRD per Norrin dimer (printed 2:2) | B1
